Source: PMC4154663, “Bipartite Recognition of DNA by TCF/Pangolin Is Remarkably Flexible and Contributes to Transcriptional Responsiveness and Tissue Specificity of Wingless Signaling”

T1: TCF/Pangolin HMG + C-clamp fragment (UniProt P91943 273-400)
T1 sequence: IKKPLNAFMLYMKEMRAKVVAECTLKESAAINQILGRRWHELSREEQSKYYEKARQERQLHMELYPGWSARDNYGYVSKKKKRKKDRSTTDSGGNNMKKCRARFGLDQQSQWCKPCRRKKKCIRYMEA


Target: T1, TCF/Pangolin HMG + C-clamp fragment
Test: competition EMSA; labeled AK6 probe; 10 mM Tris-HCl pH 7.5, 50 mM KCl, 1 mM DTT, 50 mM MgCl2 (so in the source), 0.05% NP40, 3.5% glycerol, 50 ug/ml poly(dIdC); 6 pmol protein, 0-2.4 pmol competitor, 20
Conditions: protein: recombinant, tags: His (pET52b(+), XmaI/SacI), blunt

Row | Binder | IC50 | IC50 (printed reverse strand is mismatched at its last 2 nt (atcgac vs atcgta))
1 | KK6 competitor (dsDNA) DNA 1: TACGATCCTTTGATCTTTGCAGTTGGCGGCGTCGTA DNA 2: TACGACGCCGCCAACTGCAAAGATCAAAGGATCGTA | 99.7 nM | –
2 | FF0 competitor (dsDNA) DNA 1: TGGTACGATCCTTTGATCTTGCCGCCAGTCGTACAC DNA 2: GTGTACGACTGGCGGCAAGATCAAAGGATCGTACCA | 9.4 nM | –
3 | AK6 competitor (dsDNA) DNA 1: TACGATAAGATCAAAGGTGCAGTGCCGCCAGTCGTA DNA 2: TACGACTGGCGGCACTGCACCTTTGATCTTATCGAC | – | 5.1 nM
4 | RW0 competitor (dsDNA) DNA 1: TGGTACGATAAGATCAAAGGTGGCGGCGTCGTACAC DNA 2: GTGTACGACGCCGCCACCTTTGATCTTATCGTACCA | 189 nM | –
